# From the DeepSol protein solubility set
# Assay: soluble on expression in E. coli; label from the status in PepcDB or PDB records
row,Sequence,soluble on expression in E. coli
1,IRVNTNKGGGVWESGAANSQSTSWGSGNGANSGGSRRGWGTPAQNTGTNLPSVEWNKLPSNQHSNDSANGNGKTFTNGWKSTEEEDQGSATSQTNEQSSVWAKTGGTVESDGSTESTGRLEEKGTGESQSRDRRKIDQHTLLQSIVNRTDLDPRVLSNSGWGQTPIKQNTAWDTETSPRGERKTDNGTEAWGSSATQTFNSGACIDKTSPNGNDTSSVSGWGDPKPALRWGDSKGSNCQGGWEDDSAATGMVKSNQWGNCKEEKAAWNDSQKNKQGWGDGQKSSQGWSVSASDNWGETSRNNHWGEANKKSSSGGSDSDRSVSGWNELGKTSSFTWGNNINPNNSSGWDESSKPTPSQGWGDPPKSNQSLGWGDSSKPVSSPDWNKQQDIVGSWGIPPATGKPPGTGWLGGPIPAPAKEEEPTGWEEPSPESIRRKMEIDDGTSAWGDPSKYNYKNVNMWNKNVPNGNSRSDQQAQVHQLLTPASAISNKEASSGSGWGEPWGEPSTPATTVDNGTSAWGKPIDSGPSWGEPIAAASSTSTWGSSSVGPQALSKSGPKSMQDGWCGDDMPLPGNRPTGWEEEEDVEIGMWNSNSSQELNSSLNWPPYTKKMSSKGLSGKKRRRERGMMKGGNKQEEAWINPFVKQFSNISFSRDSPEENVQSNKMDLSGGMLQDKRMEIDKHSLNIGDYNRTVGKGPGSRPQISKESSMERNPYFDKDGIVADESQNMQFMSSQSMKLPPSNSALPNQALGSIAGLGMQNLNSVRQNGNPSMFGVGNTAAQPRGMQQPPAQPLSSSQPNLRAQVPPPLLSPQVPVSLLKYAPNNGGLNPLFGPQQVAMLNQLSQLNQLSQISQLQRLLAQQQRAQSQRSVPSGNRPQQDQQGRPLSVQQQMMQQSRQLDPNLLVKQQTPPSQQQPLHQPAMKSFLDNVMPHTTPELQKGPSPINAFSNFPIGLNSNLNVNMDMNSIKEPQSRLRKWTTVDSISVNTSLDQNSSKHGAISSGFRLEESPFVPYDFMNSSTSPASPPGSIGDGWPRAKSPNGSSSVNWPPEFRPGEPWKGYPNIDPETDPYVTPGSVINNLSINTVREVDHLRDRNSGSSSSLNTTLPSTSAWSSIRASNYNVPLSSTAQSTSARNSDSKLTWSPGSVTNTSLAHELWKVPLPPKNITAPSRPPPGLTGQKPPLSTWDNSPLRIGGGWGNSDARYTPGSSWGESSSGRITNWLVLKNLTPQIDGSTLRTLCMQHGPLITFHLNLPHGNALVRYSSKEEVVKAQKSLHMCVLGNTTILAEFASEEEISRFFAQSQSLTPSPGWQSLGSSQSRLGSLDCSHSFSSRTDLNHWNGAGLSGTNCGDLHGTSLWGTPHYSTSLWGPPSSSDPRGISSPSPINAFLSVDHLGGGGESM,soluble
2,MNSRQQTILQMVIDQGQVSVTDLAKATGVSEVTIRQDLNTLEKLSYLRRAHGFAVSLDSDDVETRMMSNYTLKRELAEFAASLVQPGETIFIENGSSNALLARTLGEQKKNVTIITVSSYIAHLLKDAPCEVILLGGVYQKKSESMVGPLTRQCIQQVHFSKAFIGIDGWQPETGFTGRDMMRTDVVNAVLEKECEAIVLTDSSKFGAVHSYSIGPVERFNRVITDSKIRASDLMHLEHSKLTIHVVDILEHHHHHH,soluble
3,MLPQHDFIFFFFAFSILSPSPPPLSSFSSPPPPSFSFFIASTSFFSSQPPSHPRVKKCIDTHTTPSTLTFFSAHHPLASPKIHYEVVLYYSFFFKFRLRLLLVSVAHQLLE,not soluble
4,MTDIAQLLGKDADSLLQHRCMTIPSDQLYLPGKDYVDRVMIDNNRPPAVLRNMQTLYNTGRLAGTGYLSILPVDQGVEHSAGASFAANPRYFDPKNIVELAIEAGCNCVASTYGVLASVSRRYAHRIPFLVKLNHNETLSYPTEYDQTLYASVEQAFNMGAVAVGATIYFGSEQSRRQIEEISAAFERAHELGMVTVLWAYLRNSSFKKDGVDYHVSADLTGQANHLAATIGADIVKQKMAENNGGYKAVNFGYTDDRVYSKLTSDNPIDLVRYQLANCYMGRAGLINSGGADGGDTDLGDAVRTAVINKRAGGMGLILGRKAFKKSMADGVKLINAVQDVYLDSKVTIA,not soluble
5,MGSDKIHHHHHHMLGKTANGLFWMSRYLERAENTARLIETGQRIALTRLGSAEDEWVSILQSAGSLGGFREAYDTHGQDAAVDWMLRGKDNPSSIMSSIASARQNARLVRAAITGEVWEAINATYMTASDLLARKVSARDLPDVLASIRQHTALMRGMVHGTMLRNDIYDFLRIGTFLERADNTARILDVKYYVLLPSVSAVGSSIDNVQWESILRSVSARGGFRMEYGADGGPQEIAHFLIFDKRMPRSLAFCVSKIKDNLRYLNAGQPTPSPSQELVTHLENTYLSHGIEEVFDYGLHEFIEKMLELLLELAHQIQLDYRFYE,not soluble
6,MSLKEKSVINAVKAEILVEKLVDKLMKEQELNPSEDILRAYYEFYKREFYRPSSVKLLGIYVKSKKEAERISQILKQGEVPSTEDVKVSKPLWYSIPTLPKYIRRNFRTLSVGEVSKPIKINDGYLVFKILDKKPAGFIPFERAKSLVKKMYLKEKRKEVFKKWLSEVLKKYQVRSTGKTCNTFISRFFFRKVNRQGEGHHHHHH,not soluble
7,CATGTRQSPINIQWKDSVYDPQLAPLRVSYDAASCRYLWNTGYAFQVEFDDSCEDSGISGGPLGNHYRLKQFHFHWGATDEWGSEHAVDGHTYPAELHLVHWNSTKYENCKKASVGENGLAVIGVFLKLGAHHQALQKLVDVLPEVRHKDTQVAMGPFDPSCLMPACRDYWTYPGSLTTPPLAESVTWIVQKTPVEVSPSQLSMFRTLLFSGRGEEEDVMVNNYRPLQPLRDRKLRSSFRLDRTKMRS,soluble
8,MVEKPVVIKFGGTSVRYAFEEALELVAKLHENMKIIVVVSALAGVTDCLLRLAKGDKSALLEIDEIHEELSQELNVQLEHLIHQLKKTINSKSSFPSEKAFIDEIASFGERFSAKLFSEGLKILGITARPVDSKDVLFVKGEFGNAEVEFKKSAQGVDVLYRMLRRGIVPVVTGYYGNLNGFRATFGRGGSDYSATSIASLVNAKAVLIMSDVEGIYTADPKLVPPARLIHYISYKEAKTAAKLGMKVLHPRAIDPVEGKIPVILGKTRDLKFGTLISHESQGIPIVTHKLLENHAEISVVSVKTNIPLPYEVYEEGDLYFKIKTSKDQFLEVLRDVHRRVVENENLHSSHDGELWTWVLEHHHHHH,not soluble
9,MVFSGPASPGLTLAPLRRGGIDPCYRVDAAGAIWRTSLMPSGPVTARITRAATDAADCQAWGEGADEFIDRLPALLGVDDDASDFAPAEPTIAKARRQVPHLRLGRTGRMLEALIPAIIEQRVYGLDAWRAWRALVTKFGTPAPGPAPDGMRVVPSAEVWRRIPSWEFHRANVDPGRARTIVMCAQRADSLERLTHERAAVTLRSLPGVGEWTAAETMQRVFGDADALSAGDYHLATLVGQALTGEPVDDAGMVELLEPMRPHRHRAVRLLEASGMFVYRRRGARQAIPKLRTL,not soluble
10,SRLYRHNLMEDVFNMENESFMQETRLMENEYSVNLPTRFYYKKRWNNGFVNIVNIFRACMVIGTPGSGKSYAIVNSYIRQLIAKGFAIYIYDYKFDDLSTIAYNSLLKNMDKYEVKPRFYVINFDDPRRSHRCNPINPEFMTDISDAYEASYTIMLNLNRTWIEKQGDFFVESPIILLAAIIWYLKIYKNGIYCTFPHAVELLNKPYSDLFTILTSYPELENYLSPFMDAWKGNAQDQLQGQIASAKIPLTRMISPQLYWVMTGNDFSLDINNPKEPKLLCVGNNPDRQNIYSAALGLYNSRIVKLINKKKQLKCAVIIDELPTIYFRGLDNLIATARSNKVGVLLGFQDFSQLTRDYGEKESKVIQNTVGNIFSGQVVGETAKTLSERFGKVLQQRQSVSINRQDVSTSINTQLDSLIPASKIANLSQGTFVGAVADNFDERIEQKIFHAEIVVDHTKISAEEKAYQKIPVINDFKDRNGNDIMMQQIQRNYDQIKADAQAIINEEMRRIKNDPELRKRLGLEDEKGKDPDKS,not soluble
11,MAHHHHHHMDYRQKAARLPRSAEEKSRWRRVIIILEHCPLAVVRGKYGFELLAERHRAHHARYKQDPAEWRPDVVHQALLHLMDSPLNRAGMLQVFLRTKKGVVIAVDPRLRVPRHMRLFEKMMVSCLYRMKVRAANGSVSLLRVVKNPVTDHIPANCTLIRVEKDGDAVPDIFAYCATCGTNRHADGSTSENVGTATACSSSAGSDAKEPHFAQKHRDLADAKQFRPFAFIIGGMSKGDVDAPYAPRAQVKSIRLGDRGMSAAAACSVIIHGFEEEWLREDNEAC,not soluble
